Where a chain is given by its changes, count along the chain named. Numbers in names are those of the source.
T1: CD25 (Homo sapiens (Human), UniProt P01589 22-240)
T1 construct: also called IL-2R alpha chain
T1 sequence: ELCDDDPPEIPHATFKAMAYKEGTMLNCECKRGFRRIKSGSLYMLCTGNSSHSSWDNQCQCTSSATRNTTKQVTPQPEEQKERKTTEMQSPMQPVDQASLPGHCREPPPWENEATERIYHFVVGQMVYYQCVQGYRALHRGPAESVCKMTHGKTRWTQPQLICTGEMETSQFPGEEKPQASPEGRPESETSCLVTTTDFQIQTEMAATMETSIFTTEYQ

B1: human IL-2 mutein polypeptide fused N-terminally to human IgG1 Fc domain (SEQ ID NO: 57) (Fc fusion)
chain: APTSSSTKKTQLQLEHLLLDLQMILNGINNYKNPKLTRMLTFKFYMPKKATELKHLQCLEEELKPLEEALNLAPSKNFHLRPRDLISDINVIVLELKGSETTFMCEYADETATIVEFLNRWITFSQSIISTLTGGGGSGGGGSGGGGSGGGGSDKTHTCPPCPAPEAAGAPSVFLFPPKPKDTLMISRTPEVTCVVVDVSHEDPEVKFNWYVDGVEVHNAKTKPREEQYNSTYRVVSVLTVLHQDWLNGKEYKCKVSNKALPAPIEKTISKAKGQPREPQVYTLPPSREEMTKNQVSLTCLVKGFYPSDIAVEWESNGQPENNYKTTPPVLDSDGSFFLYSKLTVDKSRWQQGNVFSCSVMHEALHNHYTQKSLSLSPG
notes: also called IL-2 N88D V69A, Q74P-G4Sx4-Fc
B2: SEQ ID NO 53 (Fc fusion)
chain: B1 chain with L53I
notes: also called IL-2 L53I N88D V69A, Q74P,C125S-G4Sx4-Fc
B3: SEQ ID NO 54 (Fc fusion)
chain: B1 chain with L56I
notes: also called IL-2 L56I N88D V69A, Q74P, C125S-G4Sx4-Fc
B4: SEQ ID NO 55 (Fc fusion)
chain: B1 chain with L80I
notes: also called IL-2 L80I N88D V69A, C125S Q74P-G4Sx4-Fc
B5: SEQ ID NO 56 (Fc fusion)
chain: B1 chain with L118I
notes: also called IL-2 L118I N88D V69A, Q74P, C125S-G4Sx4-Fc

molecular target: mouse PD-1 on primary mouse T cell blasts (mouse) (UniProt Q02242); experiment: cell-based or functional assay
Sequence (Q02242 25-288): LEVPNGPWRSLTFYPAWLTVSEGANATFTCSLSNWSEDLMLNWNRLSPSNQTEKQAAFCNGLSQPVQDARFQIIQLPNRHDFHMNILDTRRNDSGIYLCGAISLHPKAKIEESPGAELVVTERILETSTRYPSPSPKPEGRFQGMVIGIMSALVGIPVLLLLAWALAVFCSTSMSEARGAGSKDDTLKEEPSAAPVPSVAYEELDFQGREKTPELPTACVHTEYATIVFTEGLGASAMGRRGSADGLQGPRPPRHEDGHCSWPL

Molecule	Mouse agonist-CTG: IC50
PD-L1 (reference in the table of Example 36) (ligand)	2.4 nM

molecular target: T1, CD25; experiment: ELISA, CD25 coated at 0.5 µg/mL, detection with biotinylated anti-IL-2 polyclonal
Method: An immunosorbent plate was coated with CD25 at a concentration of 0.5 μg/mL in PBS pH 7.4, 75 μL/well, and incubated overnight at 4° C. Wells were washed with PBS pH 7.4 containing 0.05% Tween-20 (wash buffer) three times, and then blocked with 200 μL/well 1% BSA in PBS pH 7.4 (block buffer) for two hours at room temperature. After three washes with wash buffer IL-2 muteins SEQ ID NO: 53, SEQ ID NO: 54, SEQ ID NO: 55, SEQ ID NO: 56 were diluted to eleven-two fold serial dilution in PBS containing 1% BSA and 0.05% Tween-20 (assay buffer) with 2 nM being the highest concentration. The diluted material was added to the CD25 coated plate at 75 μL/well for 1 hour at room temperature. After three washes with wash buffer, a goat biotinylated anti-IL-2 polyclonal antibody, diluted to 0.05 μg/mL in assay buffer, was added to the plate at 75 μL/well for 1 hour at room temperature. After three washes with wash buffer high sensitivity streptavidin HRP diluted in assay buffer at 1:5000 was added to the plate at 75 μL/well for 15 minutes at room temperature. After three washes with wash buffer and 1 wash with wash buffer (with no Tween-20), the assay was developed with TMB, and stopped with 1N HCL. OD 450 nm was measured. The experiment included appropriate controls for non-specific binding of the molecules to the plate/block in the absence of CD25. […] Additionally, there was no detection of any compound at any concentration tested, when CD25 was not present on the plate surface, indicating none of the test compounds were interacting non-specifically with the plate surface. Thus, the muteins of Example 19 can bind to CD25.

Molecule	EC50
B1	< 1 nM
B2	< 1 nM
B3	< 1 nM
B4	< 1 nM
B5	< 1 nM
